Assay results as given in the supplement of paper PMC10724198.
± gives the standard deviation of the averaged measurements.

Tests used:
[1] = test system: Saccharomyces cerevisiae; experiment: protein stability index of tFT-peptide fusion (C-terminal peptide) (PSI (0-1 scale)); higher = more stable (slower turnover); conditions: genetic background: wild type; temperature: 30 C
[2] = test system: Saccharomyces cerevisiae; experiment: as above
Protocol: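 MPS profiling in S. cerevisiae of the tFT-X12 degron library: putative degron peptides plus stable controls, 12 aa, fused to the C-terminus of a sfGFP-mCherry timer. Cells are FACS-sorted into 8 mCherry/sfGFP bins and deep-sequenced. PSI runs from 0 (unstable) to 1 (stable). Backgrounds are wild type, das1Δ and doa10Δ at 30 °C, and wild type, das1Δ, cdc34-1 and cdc53-1 at 37 °C; 2-3 technical replicates each.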

[3] = genetic background: cdc34-1, temperature: 37 C
[4] = genetic background: cdc53-1, temperature: 37 C
[5] = genetic background: das1 deletion, temperature: 30 C
[6] = genetic background: das1 deletion, temperature: 37 C
[7] = genetic background: doa10 deletion, temperature: 30 C
[8] = genetic background: wild type, temperature: 30 C
[9] = genetic background: wild type, temperature: 37 C
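Further: PSI is a weighted mean of sequencing reads over stability bins, variants kept only with over 10 reads, mCherry proximal and sfGFP distal, peptide attached via GGGS linker.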

Row | Sequence | protein stability index [1] | protein stability index [2, 3] | protein stability index [2, 4] | protein stability index [2, 5] | protein stability index [2, 6] | protein stability index [2, 7] | protein stability index [2, 8] | protein stability index [2, 9]
1 | TLCFRLSWVLLV | 0.0528 ± 0.037 | 0.0812 ± 0.028 | 0.15 ± 0.013 | 0.144 ± 0.02 | 0.22 ± 0.014 | 0.0335 ± 0.006 | 0.0265 ± 0.0028 | 0.0672 ± 0.022
2 | LGFFIFSFLILK | 0.25 ± 0.015 | 0.0638 ± 0.017 | 0.0569 ± 0.025 | 0.189 ± 0.031 | 0.235 ± 0.011 | 0.263 ± 0.017 | 0.124 ± 0.036 | 0.221 ± 0.057
3 | RVWIVCYHVSSY | 0.262 ± 0.076 | 0.214 ± 0.016 | 0.3264 ± 0.00073 | 0.204 ± 0.024 | 0.371 ± 0.011 | 0.196 ± 0.0097 | 0.207 ± 0.0069 | 0.349 ± 0.022
4 | KCEKGLYCCIAF | 0.504 ± 0.073 | 0.608 ± 0.055 | 0.68 ± 0.036 | 0.518 ± 0.031 | 0.664 ± 0.0099 | 0.516 ± 0.025 | 0.534 ± 0.027 | 0.626 ± 0.018
5 | IFFYPFLIFCFV | 0.325 ± 0.018 | 0.251 ± 0.022 | 0.281 ± 0.026 | 0.267 ± 0.027 | 0.396 ± 0.019 | 0.2722 ± 0.00072 | 0.238 ± 0.032 | 0.332 ± 0.012
6 | RLCKGQKYTKIN | 0.105 ± 0.015 | 0.597 ± 0.014 | 0.718 ± 0.02 | 0.659 ± 0.023 | 0.707 ± 0.034 | 0.0852 ± 0.02 | 0.105 ± 0.026 | 0.155 ± 0.043
7 | SNFFPVPLLLFR | 0.383 ± 0.088 | 0.211 ± 0.0084 | 0.117 ± 0.024 | 0.309 ± 0.016 | 0.383 ± 0.0094 | 0.647 ± 0.024 | 0.297 ± 0.019 | 0.327 ± 0.031
8 | VVFFFKFFLLRL | 0.363 ± 0.026 | 0.262 ± 0.0047 | 0.224 ± 0.025 | 0.318 ± 0.031 | 0.407 ± 0.033 | 0.362 ± 0.018 | 0.246 ± 0.035 | 0.325 ± 0.019
9 | VFLFSLCIRLSR | 0.204 ± 0.008 | 0.122 ± 0.065 | 0.214 ± 0.0052 | 0.141 ± 0.031 | 0.289 ± 0.013 | 0.133 ± 0.013 | 0.147 ± 0.018 | 0.248 ± 0.011
10 | PPPPHSAPLFLS | 0.37 ± 0.0087 | 0.604 ± 0.007 | 0.697 ± 0.011 | 0.651 ± 0.019 | 0.694 ± 0.011 | 0.227 ± 0.0096 | 0.261 ± 0.032 | 0.458 ± 0.011
